Experimental findings from US20050123972A1 (Bristol-Myers Squibb, published 2005) are described below.

To fix the notation:
B2: human eotaxin (125I-labeled human eotaxin, Perkin Elmer #NEX-314; unlabeled recombinant human eotaxin, R&D Systems #320-EO/CF) (ligand)
chain: not shown
modifications: 125I label (position not given) on the tracer form
notes: also called labeled (hot) eotaxin

In assay [1] the target is B2. The assay is described as follows: 125I-eotaxin binding to CHO CCR3/2 clone 5.5 cells, filter plate assay (FIG. 1). How it is done: (§1) Invest. 97:604). In order to compare the ability of cells expressing chimeric human CCR3/2 molecules to that of cells expressing endogenous human CCR3 to bind eotaxin, a binding assay was performed. Depending upon the questions being asked, the cells in question were either human or mouse eosinophils, CHO-K1 cells expressing recombinant CCR3 or CCR3/2, parental CHO-K1 cells or other cell types. All assay steps were conducted at room temperature. Multiscreen assay plates (#MABVN1250, Millipore Inc., Marlborough, Mass.) were incubated with 100 μl/well of blocking solution (7.5 μg/ml protamine in PBS) to block non-specific binding. After 20 minutes, the blocking solution was removed and replaced with 100 μl of binding buffer, (RPMI 1640 (Life Technologies, Grand Island, N.Y.) containing 0.1% bovine serum albumin and 20 mM HEPES buffer) and incubated for at least an additional 10 minutes.
(§2) When ready to use plate(s), the following procedure was employed. […]
(§3) Binding data were analyzed using Microsoft EXCEL and then graphed using […] […]

Assay [2] concerns the target T1, wild-type human CCR3 (endogenous, on native human eosinophils) (human, UniProt P51677 1-355).
T1 construct: This is the endogenous receptor on human eosinophils; also called eotaxin receptor; wild-type intact receptor in eosinophils
T1 sequence: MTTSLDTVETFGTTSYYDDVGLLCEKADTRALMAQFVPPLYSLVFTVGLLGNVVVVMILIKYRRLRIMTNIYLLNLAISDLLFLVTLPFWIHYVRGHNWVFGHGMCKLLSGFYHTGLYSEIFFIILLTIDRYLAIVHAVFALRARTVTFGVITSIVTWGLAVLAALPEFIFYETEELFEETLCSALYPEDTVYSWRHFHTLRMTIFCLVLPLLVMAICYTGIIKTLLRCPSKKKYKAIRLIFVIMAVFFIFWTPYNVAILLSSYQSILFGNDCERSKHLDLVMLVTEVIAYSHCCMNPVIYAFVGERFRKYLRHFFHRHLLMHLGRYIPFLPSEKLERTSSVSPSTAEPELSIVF
The experiment in a line: 125I-eotaxin binding to cells, filter plate assay. The procedure:
as §1, §2, §3

B1: chimeric CCR3/2 receptor (human CCR3 residues 1-310 joined to the cytoplasmic tail of human CCR2 isoform B), expressed on CHO-K1 cells (receptor)
chain: MTTSLDTVETFGTTSYYDDVGLLCEKADTRALMAQFVPPLYSLVFTVGLLGNVVVVMILIKYRRLRIMTNIYLLNLAISDLLFLVTLPFWIHYVRGHNWVFGHGMCKLLSGFYHTGLYSEIFFIILLTIDRYLAIVHAVFALRARTVTFGVITSIVTWGLAVLAALPEFIFYETEELFEETLCSALYPEDTVYSWRHFHTLRMTIFCLVLPLLVMAICYTGIIKTLLRCPSKKKYKAIRLIFVIMAVFFIFWTPYNVAILLSSYQSILFGNDCERSKHLDLVMLVTEVIAYSHCCMNPVIYAFVGERFRKYLSVFFRKHITKRFCKQCPVFYRETVDGVTSTNTPSTGEQEVSAGL
notes: Expressed from the pFLAG-CMV-3 vector in CHO-K1 cells; also called CCR3/2 chimera; CHO CCR3/2 clone 5.5
Regarding B1, the binding result in assay [1] was “binds”.
In the case of B2, the binding result in assay [2] is on record as “binds”.
